The assay concerns the target ALG-2 (human (endogenous in HeLa)) (UniProt O75340).
Sequence of UniProt O75340 (O75340 whole entry): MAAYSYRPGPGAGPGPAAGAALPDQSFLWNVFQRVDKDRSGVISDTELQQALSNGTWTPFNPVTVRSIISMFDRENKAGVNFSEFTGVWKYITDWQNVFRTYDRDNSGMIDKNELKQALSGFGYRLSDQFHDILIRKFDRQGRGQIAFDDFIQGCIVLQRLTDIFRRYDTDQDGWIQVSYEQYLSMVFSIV

For QGPPYPTYPGYPGYCQ [ALIX peptide], the viability of EGFP-expressing HeLa cells 1 hour after 50 uM digitonin in the presence of 10 uM peptide (about 60% without the peptide) was 37 % viability.

The values are drawn from paper PMC6150531.
